Measured values: the RNAGym collection of RNA variant scans (doi:10.1073/pnas.2313332121)

B1: TPR t1 (parent)
chain: GACCAAUCUGCCCUCAGAGCUCGAGAACAUCUUCGGAUGCAGAGGAGGCAGGCUUCGGUGGCGCGAUAGCGCCAACGUCCUCAACCUCCAAUGCAUCCCACCACAUGAUGAUGCCUGAAGAGCCUUGGUUUUUUG

Variants of: B1
Experiment: polymerase ribozyme fitness, log enrichment relative to wild type (log ratio); higher = more active; in vitro selection for triplet polymerase activity
In short: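 Input and output libraries were sequenced on Illumina after a single in vitro selection round, run in triplicate on PCR-built, transcribed mutant libraries of each subunit of a heterodimeric triplet polymerase ribozyme. Selection annealed libraries to a biotinylated primer, the partner subunit and triplets, incubated them frozen at −7 °C, then gel-excised extended constructs for streptavidin-bead capture and RT-PCR. Genotypes with ≥10 input reads and ≥1 read per output were kept. Fitness is the logarithm, taken in base 2, of genotype enrichment divided by wild-type enrichment, using inverse-variance-weighted replicate averages.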

Variant | polymerase ribozyme fitness (log ratio)
G52C C72U C73G | -1.01
G52U A121C G127A | -0.484
C53G C72A U81A G120C C123G | -1.65
G52C C56G G71U C124U | -3.19
G51U G120C | -2.42
G51U G120U | -3.69
C53A G60A U78C | 0.136
C53A G61C | -4.19
G52A U92G | -2.95
G52C C94A | -0.653
G52U C72A C86A G113A G122C | -4.85
G52U G63U A119G G120U A121U | -0.023
G52A C85G C124A | 0.15
G52U U55C C79U | -0.237
C53G C64U G110U G128A U133A | -5.27
G52A C123A | -0.148
G52A C73G C85A | -1.93
G52U A121G | 1.06
G52C U132A | -1.09
G52C U131A | -0.555
G52C G61C | -3.04
G52A C56U U59G C114U C124A G135C | -0.522
G52C G69U | -0.241
G52C G69A | -3.55

Variant | polymerase ribozyme fitness (log ratio)
C53A G60A C85G | -1.1
C53A C56A G69U G127U | -1.27
C53A G128A | -1.61
C53G G63A A111C A119G | -1.67
C53G G61C C82U G120A | 0.391
C53A C62U C97U G120C | 0.732
G52U C56A | -1.92
C53A C82G A118G | -0.931
G52C C115A | -1.03
G52U G61U A118G U129A | -1.85
C53A U106A G120U C123A | 0.599
C53G C72G C123U | 0.978
G52A G63U U129A | -3.94
C53A G63U C114U | -5.9
C53A G60A A105C | -2.91
G52A C85G | -1.03
C53A U55G | 0.151
G52A U92A C98U A119U C124A | -3.81
G52C A100C C114A | -4.06
G52U G61A G110U | -2
G51U G69U U87G | -0.427
C53G C94U | -0.473
C53G G71A | -1.22
C53A G71U | -1.5

Variant | polymerase ribozyme fitness (log ratio)
C53A G71U C85A | -0.672
G52A C56A | -0.146
G52A G57A | -1.07
G52A C70U C104A C124G | -3.65
G52C U59G A118G | -0.37
G52A U126C | -1.17
C53A C72G U92C U126A U132A | -4.63
G52U C70G C72U | -3.48
C53A U59C A121G | 1.49
C53A C72U C85U G122A | -0.784
C53A G61U C72U U87C G127A | -1.15
C53A C70A | -1.81
G52A C62A U87A | -3.07
C53A C94A U112C | 1.14
G52A C104U G113C | -2.55
C53G G69A U78C C97U | -2.9
C53G C64U | -0.328
C53G C73A C102A G128C | -4.69
C53A U130C | 0.592
C53A U130G | -0.264
C53A C56G U81G C101G U129C | -2.89
C53G C64U A118G C123U | -1.6
G52U C72A C104U A111G G113A | -2.25
C53A G120U G127A | -0.445

Variant | polymerase ribozyme fitness (log ratio)
C53A C97A | -4.2
G52C C56A | -0.559
G52C C56U | -0.823
G52U C72U | -0.747
G52U G61C | 0.0885
C53G G57A G71A C94G C114A | -5.83
C53A C72A | -1.56
C53A C72U | -0.465
G52A C72A | 0.151
G52U G110A | -1.73
C53G C62U | -0.0991
C53G C62A | -1.3
G52C G61A C72U | -0.0205
G52A C104U G110C | -2.99
C53G G61U C70U | -0.621
C53A C62A U125C | -6.14
G52A G60A C79A C115A U132A | -0.536
G51U U55A C64U C114G C115U C123U | -7.28
C53G C72G | 0.577
G52C G63C C85U C104U | -3.03
C53A C64U C99U U133G | -4.1
C53G A90C | -2.02
G52A U133A | -0.415
G52U C104A | -2.28

Variant | polymerase ribozyme fitness (log ratio)
C53G G60A G61C A91C | -3.39
G52C C123G U133G | 0.949
G52A G71C G93C | -5.59
C53G A74G G117A | -1.73
C53A G77U C102U | -2
G52A G57A G113A | -0.88
C53A G69U | 1.4
G52U G117C | -5.35
G52U G117U | -3.39
C53G C94A U132A | -1.31
C53A U59C | 0.311
C53A G63A C115U | -3.96
C53A G63C | -2.92
C53A A74G | -0.303
C53G G63C G93C | -0.994
G52U U54G G69C | -4.27
C53G C80U G128C | -2.66
C53A U81C U109A G110U U126G | -5.92
G52A G58U C73G | -0.432
G52A A84U U131G | -0.974
G52C U55C | -0.101
G52U A111U | -3.93
G52U A111C | -2.18
G52A C79U G120U | -0.265

Variant | polymerase ribozyme fitness (log ratio)
C53A G71A C115U | -3.94
C53G C115A | -0.163
G52C U67A C70A G117C | -6.05
G52C G63C U87C | -0.694
G51U G61U G127A | -4.92
C53A C80U U106A | -5.29
G52A A68G G93A | -5.07
C53G A105C | -2.81
G52U A105C | -3.57
C53A C56U U78C A118U G120C | 0.115
C53G C56U G117A | -1.63
C53G G69A C115A U116A | -5.69
G52A C62U C79G | -0.394
C53A U78G C80U C123G | 0.434
G52U G58C C79U | -0.312
G52C A83C A118G U131A | -0.732
C53A C89U U131G | 0.265
C53A C79A G117U | -4.98
G52A U54A G69U G77U C80G A83C A119U | -3.11
C53A U55A C82U | -0.263
G52A G77U G117U | -4.34
G52C U81A U130A | -2.3
C53A C89U U106C | -0.0062
C53G C124A | 0.714

Variant | polymerase ribozyme fitness (log ratio)
C53A G57U G93C C97U | -0.989
G51U G71A | -5.06
G52U A83U G127A | -3.16
G52U C64U | -0.768
C53G C98G | -5.63
G52U C73U A83U G120A C124U | -0.229
G52C C101A | -2.34
C53G C79U G122A | -3.43
G52A G69C C104U G113C | -4.79
C53G G63U | -2.05
G52U C79G A83G A121G U132A | 0.919
C53G C70U U78C U106G | -3.34
G52U C53U | -1.04
G52U C53U C56U G93U U109G | -6.55
G52A G57A U129A | -2.51
C53G G63A C115G U116A U131G | -7.22
G52U C62G C89G U109C A111U | -6.22
G52A C104U | 0.136
G52U U67G C101U G120C | -6.94
G51U G61U C80A G127U | -1.14
G52A C64G C88G G120U | -6.36
G52A C102U G120A | -1.56
G52U C82G | -2.18
